Test results published in paper PMC3179463.

Columns and labels:
[1] = molecular target: MALT1 tandem Ig-like domains (IgL1–IgL2) (human); assay: SEC; Superdex-200 16/60, 10 mg/mL protein, Tris buffer pH 8.0 (50 mM in the methods, 20 mM in the legend), 500 mM NaCl, 1 mM TCEP, 4°C; mass estimated from standard proteins
[2] = molecular target: MALT1 tandem Ig-like domains (IgL1–IgL2) (human); assay: AUC; sedimentation equilibrium, Beckman Optima XL-A, An-60 Ti rotor; 20 mM Tris-HCl pH 8, 200 mM NaCl, 1 mM TCEP; 12,000 and 15,000 rpm, 4°C; 0.25, 0.5 and 1.0 mg/ml; global self-association fit

- stoichiometry N [1]: 4
- stoichiometry N [2]: 3.5
Substance: MALT1 tandem Ig-like domains (IgL1–IgL2) (domain or fragment)
